Experiments:
YtfE = target: T1, YtfE (Escherichia coli, UniProt P69506); experiment: initial rates of DTT-mediated reduction of air-exposed YtfE (A340 nm), binding isotherm; assay type: biochemical; conditions: air-exposed (oxidized) YtfE ~90 μM; DTT 0 to 80 mM; reductant; apparent value from rates
T1 construct: C-terminal His tag (pGS2618, pET24a derivative), expressed in E. coli BL21 (DE3)-T1R, purified anaerobically; di-iron holo form, 26,154 Da, monomer
Description: initial rates of DTT-mediated reduction of air-exposed YtfE (A340 nm), binding isotherm on YtfE | fitted using a simple binding isotherm, from which a Kd was obtained

purified protein = substrate: O=NO; experiment: purified protein; assay type: biochemical, Escherichia coli; conditions: di-ferrous YtfE 10 μM, reductant dithionite-reduced methyl viologen 58 μM, pH 7.5, 100 mM Tris, anaerobic

Row | Kd (YtfE) [mM] | Molecule | Km (purified protein) | Vmax (purified protein) [µmol/min/mg] | kcat (purified protein) [s⁻¹] | kcat/Km (purified protein) [M⁻¹ s⁻¹]
1 | 7.3 | OC(CS)C(O)CS (stereo not drawn) [DTT] | – | – | – | –
2 | – | YtfE (Escherichia coli K-12) (protein, C-terminal His tag (pGS2618, pET24a derivative), expressed in E. coli BL21 (DE3)-T1R, purified anaerobically; di-iron holo form, 26,154 Da, monomer) MAYRDQPLGELALSIPRASALFRKYDMDYCCGGKQTLARAAARKELDVEVIEAELAKLAEQPIEKDWRSAPLAEIIDHIIVRYHDRHREQLPELILQATKVERVHADKPSVPKGLTKYLTMLHEELSSHMMKEEQILFPMIKQGMGSQAMGPISVMESEHDEAGELLEVIKHTTNNVTPPPEACTTWKAMYNGINELIDDLMDHISLENNVLFPRALAGE | 252 (± 32) μM | 1.33 | 0.58 ± 0.0265 | 2300 ± 105
3 | – | YtfE (Escherichia coli K-12; C30A/C31A) (protein, C-terminal His tag (pGS2618, pET24a derivative), expressed in E. coli BL21 (DE3)-T1R, purified anaerobically; di-iron holo form, 26,154 Da, monomer) MAYRDQPLGELALSIPRASALFRKYDMDYAAGGKQTLARAAARKELDVEVIEAELAKLAEQPIEKDWRSAPLAEIIDHIIVRYHDRHREQLPELILQATKVERVHADKPSVPKGLTKYLTMLHEELSSHMMKEEQILFPMIKQGMGSQAMGPISVMESEHDEAGELLEVIKHTTNNVTPPPEACTTWKAMYNGINELIDDLMDHISLENNVLFPRALAGE | 288 (± 29) μM | 1.59 | 0.693 ± 0.0263 | 2410 ± 91.7

— article PMC9052748, “The Di-Iron Protein YtfE Is a Nitric Oxide-Generating Nitrite Reductase Involved in the Management of Nitrosative Stress” (Journal of the American Chemical Society, 2022)
